Data: patent US20230348573A1 (KEIO UNIVERSITY, published 2023)

B1: Ab709TK (antibody, V domains shown)
VH: QVQLVESGGGVVQPGKSLRLSCAASGFTFSSYAMHWVRLAPGKGLEWVAVISPDGKNKYYVDSVKGRSTISRDNSKNTLYLLMNSLRAEDTAVYYCATTQSLWFGQFYYIYGMDVWGQGTTVTVSS
VL: QSVLTQPHSVSESPGKTITISCTGSSGSIASNYVQWYQQRPGSAPTTVIYEDTERPSGVPDRFSGSIDSSSNSASLTISGLKTEDEADYYCQSYDSNNVVFGGGTKLTVL
B2: Ab496 (antibody, V domains shown)
VH: EVQLVQSGPEVKKPGTSVKVSCKASGFIFTNSAVQWVRQARGQRLEWIGWIVVGSGNPNYAQKFQERVTITRDRSTSTAYMELSSLTSEDTAVYYCAAFPYYYDNSGSGPWGQGTLVTVSS
VL: DIQLTQSPSSLSASVGDRVTITCQASQDIRNNLNWYQQIPGKAPKLLIYDASNLETGVPSRFSGSASGTDFTFTISSLQPEDVATYYCQQYANLPPFTFGPGTKVDIK
B3: Ab159 (antibody, V domains shown)
VH: QVQLVESGGGLVKPGGSLRLSCAASGFTFNNAWMSWVRQAPGKGLEWVGRIKSKTDGGTTDYAAPVKGRFTFSRDDSKNTLYLQMSSLKTEDTALYYCTTADYDILTGTPASPYWGQGTLVTVSS
VL: DIQMTQSPSSLSASVGDRVTITCRASQSITNYLNWYQQKPGKAPKFLIYAASSLQGGVPSRFRGSGSGTDFTLTISSLQPEDFATYYCQQTYSTLWTFGQGTKVEIK
B4: Ab847 (antibody, V domains shown)
VH: EVQLVQSGAEVKKPGASVKVSCKASGYTFTSYDIIWVRQATGQGLEWMGWMDPSRGTTGYAQTFQGRVTMTRDTSISTAYLELNSLTSEDTAVYYCVAHIVVLDRWFDPWGQGTLVTVSS
VL: DIVMTQSPSSLSASVGDRVTITCQASQDIGNFLNWCQQKPGQAPKVLIYGASNLETGVPSRFSGSGSGTDFTFTISSLQPEDIATYYCQHYDNFPPRFTFGQGTKLDIK
B5: Ab765 (antibody, V domains shown)
VH: QVQLVESGGGVVQPGRSLRLSCAASGFTFSDYAIHWVRQAPGRGLEPVALISYDGNNKYYADSVKGRFTISRDNSKNVLYLQMNSLRADDTAVYYCARDAEGGWVAALDYWGQGTLVTVSS
VL: QSALTQPRSVSGSPGQSVTISCTGTSSDVGGYNYVSWYQHHPGKAPKVMIYEVSKRPSGVPDRFSGSKSGTTASLTISGLQAEDEADYYCCSYAGTYPYVFGTGTKVTVL
B6: Ab188 (antibody, V domains shown)
VH: EVQLVESGGGLVQPGGSLRLSCAASGFTFINYKMNWVRQAPGKGLEWVSYISSGSDAIYYADSVKGRFTISRDNAKNSLYLQMNSLRDEDTALYYCARGGGYNYGECMDVWGQGTTVTVSS
VL: not shown
B7: Ab712 (antibody, V domains shown)
VH: QVQLVQSGSELKKPGASVKISCKASGYTFINHAINWVRQAPGQGLEWMGWINTNTGNPTYAPGFTGRFVFSLDTSVSTAYLQISSLKAEDTAVYYCARIPIRDYDYDGSGYYYFLDYWGQGTLVTVSS
VL: SYELTQDPAVSVALGQTVRITCQGDSLRSSSASWYQQKPGQAPVLVIYGKTNRPSGIPDRFSGSSSGNTASLTITGAQAEDEADYYCNSRDNSGNHPVVFGGGTKLTVL
B8: Ab354 (antibody, V domains shown)
VH: QVQLVQSGAEVKKPGASVTVSCKASGFLFTGYYMHWVRQAPGQGLEWMGWINPNSGASNYTRKFQGRVTMTRDTSISATYMKLSRLTSDDTAVYYCARDLAFSMVRGALDYWGQGTLVTVSS
VL: QLVLTQPPSASGSPGQSVTISCTGTSSDVGGYNYVSWYQHHPGKAPKLMIYEVSKRPSGVPDRFSGSKSGNTASLTVSGLQAEDEADYYCNSYAGNNNWVFGTGTKVTVL
B9: Ab816 (antibody, V domains shown)
VH: QVQLVQSGAEVKKPGESLMISCKASGYNFRNYWIAWVRQMPGKGLEWMGIIHPGDSDIRYRPSLQGHVTISADKSITTAYLQWGSLKASDTAMYYCTRITTDADSSGLFHYWGQGTLVTVSS
VL: EIVLTQSPSTLSASVGDRVTITCRASQNIYTWLAWYQRKPGKAPKVLIYKASSLESGVPSRFSGSGSGTEFTLTISSLQPDDFATYYCQQYKSAWSFGQGTKVEIK
B10: Ab830 (antibody, V domains shown)
VH: QVQLVQSGAEVKKPGSSVKVSCKTSGGTFTNYTISWVRQAPGQGLEWMGRIIPIFDIVNYAQKFQGRVTITADKSTSTTYMELSSLRSEDTAVYYCARDGVLYDTSGYLYDAFDIWGQGTMVTVSS
VL: DIQMTQSPSSLSASVGDRVTITCRASQGINNYLAWFQQKPGKAPKSLIYAASSLQSGVPPKFSGSGSGTDFTLTISSLQPEDFATYYCLHYNSYPWTFGQGTKVEIK
B11: Ab864 (antibody, V domains shown)
VH: EVQLVESGGGLVQPGRSLRLSCAASGFTFDDYAMHWVRQVPGKGLEWVSGISWNKGNIDYADSVKGRFTISRDNAKNSLYLQMNSLRPEDTGLYYCAKDCHYDSPGYFPNCLHSWGQGTLVTVSS
VL: EIVMTQSPSSLSASVGDRVTITCRASQGINTYLAWYQQKPGKAPKLLIYTASTLQSGVPSRFSGSGSGTDFTLTISSLQPEDFATYYCQQVHSYPLTFGGGTKVEIK
B12: Ab803 (antibody, V domains shown)
VH: EVQLVESGGGLVQPGRSLRVSCAASGFTFDDYAMHWVRQTPRKGLEWVAGISRNSAAIAYADSVKGRFTISRDNAKNSVFLQMNGLRADDTALYYCVKSPRYGWGSPDYSFDFWGRGTLVTVSS
VL: DIQLTQSPSSLSASVGDRVTITCRASQNIGTYLNWYQQEPGKAPKLLIYAASSLQSGVPSRFSGSGSGTDFTLTISSLQPEDFATYCCQQSFTTPLTFGQGTKVEIK
B13: Ab326 (antibody, V domains shown)
VH: EVQLVESGGGVVQPGRSLRLSCAASGFTFSHYPMHWVRQAPGRGLEWVAVISYDGSNQHYVDSVKGRFTISRDNSKNTLYLQMNSLRAEDTAVYFCASLITMIRGVPDYWGQGTLVTVSS
VL: DIQMTQSPSSLSASVGDRVTITCRASQSISNYLNWYQQKPGKAPNLLIFAASSLQSGVPSRFSGSGSGTEFTLTISSLQPEDFAAYYCLQTYSTPRTFGQGTRLEIK
B14: Ab863 (antibody, V domains shown)
VH: EVQLVQSGAEVKKPGASVKVSCQASGYTFITYYMHWVRQAPGQGLEWMGIINPDGGSISYAQKFQGRVTMTRDTSTSTVYMELSSLRSEDTAVYYCARGLSPTFSSSWFDNWGLGTLVTVSS
VL: DVVMTQSPATLSVSPGERATLSCRASQSVSSNLAWYQQKPGQAPRLLIYGASTRDTGIPARFSGSGSGTEFTLTISSLQSEDFAVYFCQQYKNWLLTFGGGTKVEIK

Each binder was assayed against spike protein of SARS-CoV-2 B.1.1.482 strain on pseudovirus (SARS-CoV-2 (B.1.1.482 strain)) (assay: cell-based or functional assay).

| Binder | IC50 of pseudovirus infection (luciferase) [µg/mL] |
| --- | --- |
| B1 | 0.172 |
| B2 | 0.0506 |
| B3 | 0.0233 |
| B4 | 0.0548 |
| B5 | 0.0117 |
| B6 | 0.171 |
| B7 | 0.0164 |
| B8 | 0.277 |
| B9 | 0.0396 |
| B10 | 0.0042 |
| B11 | 0.0234 |
| B12 | 0.144 |

What follows are binders tested against spike protein of SARS-CoV-2 α strain on pseudovirus (SARS-CoV-2 (α strain)) (assay: cell-based or functional assay).

| Binder | IC50 of pseudovirus infection (luciferase) [µg/mL] |
| --- | --- |
| B1 | 0.236 |
| B2 | 0.0169 |
| B3 | 0.0119 |
| B4 | 0.0821 |
| B5 | 0.0166 |
| B6 | 0.248 |
| B7 | 0.103 |
| B13 | 0.0493 |
| B8 | 0.0937 |
| B9 | 0.0175 |
| B10 | 0.0374 |
| B11 | 0.0098 |
| B14 | 0.0301 |
| B12 | 0.402 |

The binders below were run against spike protein of SARS-CoV-2 β strain on pseudovirus (SARS-CoV-2 (β strain)) (assay: cell-based or functional assay).

| Binder | IC50 of pseudovirus infection (luciferase) [µg/mL] |
| --- | --- |
| B1 | 0.0058 |
| B3 | 0.00537 |
| B4 | 0.0103 |
| B5 | 0.0045 |
| B6 | 0.0179 |
| B7 | 0.0077 |
| B9 | 0.0095 |
| B10 | 0.0569 |
| B11 | 0.0044 |
| B12 | 0.0104 |

These binders were tested against spike protein of SARS-CoV-2 γ strain on pseudovirus (SARS-CoV-2 (γ strain)) (assay: cell-based or functional assay).

| Binder | IC50 of pseudovirus infection (luciferase) [µg/mL] |
| --- | --- |
| B1 | 0.0033 |
| B3 | 0.00369 |
| B4 | 0.0502 |
| B5 | 0.0144 |
| B7 | 0.0022 |
| B9 | 0.0018 |
| B10 | 0.0011 |
| B12 | 0.0106 |

What follows are binders tested against spike protein of SARS-CoV-2 δ strain on pseudovirus (SARS-CoV-2 (δ strain)) (assay: cell-based or functional assay).

| Binder | IC50 of pseudovirus infection (luciferase) [µg/mL] |
| --- | --- |
| B1 | 0.0586 |
| B2 | 0.00984 |
| B3 | 0.13 |
| B4 | 0.0422 |
| B5 | 0.0269 |
| B6 | 0.139 |
| B7 | 0.0799 |
| B13 | 0.0184 |
| B8 | 0.0715 |
| B9 | 0.0239 |
| B10 | 0.0554 |
| B11 | 0.0172 |
| B12 | 0.0639 |
